# Data as given in US20230080865A1.
# Columns and labels:
# [1] = target: AEG::SOE2 chimeric recombinant protein; test: ELISA, AEG::SOE2 coated on wells; reagent 1:1000
# [2] = target: AEG::SOE3 chimeric recombinant protein; test: ELISA, AEG::SOE3 coated on wells; reagent 1:1000
substance,measurement,setting,value
secondary peroxidase-conjugated goat anti-mouse IgG (antibody),ELISA signal,[1],0.11
same,ELISA signal,[2],0.111
